{"source": "paper PMC3438196", "binders": {"B1": {"name": "Apobec3G-GFP MAPPIT bait (pCEL-Apobec3G-GFP), Q9HC16 R30L (protein)", "chain": "MKPHFRNTVERMYRDTFSYNFYNRPILSRLNTVWLCYEVKTKGPSRPPLDAKIFRGQVYSELKYHPEMRFFHWFSKWRKLHRDQEYEVTWYISWSPCTKCTRDMATFLAEDPKVTLTIFVARLYYFWDPDYQEALRSLCQKRDGPRATMKIMNYDEFQHCWSKFVYSQRELFEPWNNLPKYYILLHIMLGEILRHSMDPPTFTFNFNNEPWVRGRHETYLCYEVERMHNDTWVLLNQRRGFLCNQAPHKHGFLEGRHAELCFLDVIPFWKLDLDQDYRVTCFTSWSPCFSCAQEMAKFISKNKHVSLCIFTARIYDDQGRCQEGLRTLAEAGAKISIMTYSEFKHCWDTFVDHQGCPFQPWDGLDEHSQDLSGRLRAILQNQEN"}, "B2": {"name": "Apobec3G-GFP MAPPIT bait (pCEL-Apobec3G-GFP), Q9HC16 R122C (protein)", "chain": "B1 chain with L30R, R122C"}, "B3": {"name": "Apobec3G-GFP MAPPIT bait (pCEL-Apobec3G-GFP), Q9HC16 R102G (protein)", "chain": "B1 chain with L30R, R102G"}, "B4": {"name": "Apobec3G-GFP MAPPIT bait (pCEL-Apobec3G-GFP), Q9HC16 K79M (protein)", "chain": "B1 chain with L30R, K79M"}, "B5": {"name": "Apobec3G-GFP MAPPIT bait (pCEL-Apobec3G-GFP), Q9HC16 R78W (protein)", "chain": "B1 chain with L30R, R78W"}, "B6": {"name": "Apobec3G-GFP MAPPIT bait (pCEL-Apobec3G-GFP), Q9HC16 H81L (protein)", "chain": "B1 chain with L30R, H81L"}}, "note": "Positions count from the first letter of the chain named. In names and notes the source's numbering stands.", "data": [{"target": "T1, codon optimized Vif SLQ144-146AAA MAPPIT prey (pMG2-VifoptSLQ), P12504", "test": "MAPPIT", "conditions": "chain shown with the change", "values": [{"binder": "B1", "percent of parent": "21 % of WT"}, {"binder": "B2", "percent of parent": "16 % of WT"}, {"binder": "B3", "percent of parent": "44 % of WT"}]}, {"target": "T1, codon optimized Vif SLQ144-146AAA …", "test": "MAPPIT", "conditions": "chain shown with the change", "remark": "another data set of the same source", "values": [{"binder": "B1", "percent of parent": "21 % of WT"}, {"binder": "B4", "percent of parent": "56 % of WT"}, {"binder": "B3", "percent of parent": "44 % of WT"}, {"binder": "B5", "percent of parent": "16 % of WT"}, {"binder": "B6", "percent of parent": "53 % of WT"}]}]}
